This is an account of results in patent US20150037348A1 (AbbVie / Abbott, published 2015).

Positions count from the first letter of the chain named. Names may count otherwise.

The chains are these.
T1: recombinant human IL-12 (rhIL-12) (human, UniProt P29459 23-219; P29460 23-328)
T1 construct: disulfide-linked p35/p40 heterodimer (p70); also called IL-12 p70; rec. human IL12
T1 sequence (looked up) 1: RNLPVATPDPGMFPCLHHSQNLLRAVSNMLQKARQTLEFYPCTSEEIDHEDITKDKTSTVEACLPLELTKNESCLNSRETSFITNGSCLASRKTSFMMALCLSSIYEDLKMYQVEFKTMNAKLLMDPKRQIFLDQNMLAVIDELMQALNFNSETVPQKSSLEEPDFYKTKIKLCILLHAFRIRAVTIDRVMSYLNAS
T1 sequence (looked up) 2: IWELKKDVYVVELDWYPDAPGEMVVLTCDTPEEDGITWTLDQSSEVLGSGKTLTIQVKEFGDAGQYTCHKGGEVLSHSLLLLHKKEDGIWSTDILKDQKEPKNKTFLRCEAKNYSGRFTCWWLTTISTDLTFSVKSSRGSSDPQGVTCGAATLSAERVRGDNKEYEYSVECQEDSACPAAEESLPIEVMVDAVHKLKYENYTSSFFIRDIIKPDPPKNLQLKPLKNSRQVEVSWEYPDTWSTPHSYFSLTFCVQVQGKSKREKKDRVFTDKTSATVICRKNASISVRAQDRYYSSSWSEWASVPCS

T2: human interleukin 12 (p70 heterodimer of p35 and p40) (human, UniProt P29459 23-219; P29460 23-328)
T2 construct: Recombinant human IL-12; p35 and p40 linked by a disulfide bridge; also called hIL-12; IL-12
T2 sequence (looked up) 1: T1 sequence (looked up) 1
T2 sequence (looked up) 2: T1 sequence (looked up) 2

T3: human IL-12 (human, UniProt P29459 23-219; P29460 23-328)
T3 sequence (looked up) 1: T1 sequence (looked up) 1
T3 sequence (looked up) 2: T1 sequence (looked up) 2

B1: Y61 IgG (antibody, V domains shown)
VH: QVQLVQSGGGVVQPGRSLRLSCAASGFTFSSYGMHWVRQAPGKGLEWVAFIRYDGSNKYYADSVKGRFTISRDNSKNTLYLQMKSLRAEDTAVYYCKTHGSHDNWGQGTMVTVSS
VL: SYVLTQPPSVSGTPGQRVTISCSGGRSWIGSNTVKWYQQLPGTAPKLLIYGNDQRPSGVPDRFSGSKSGTSASLAITGVQAEDEADYYCQSYDRGTHPALLFGTGTKVTVLG
notes: whole IgG1; also called Y61-IgG1
B2: AO3 IgG germline (antibody, V domains shown)
VH: B1 VH with Q6E, K84N
VL: QSVLTQPPSVSGAPGQRVTISCSGSRSNIGSNTVKWYQQLPGTAPKLLIYGNDQRPSGVPDRFSGSKSGTSASLAITGLQAEDEADYYCQSYDRGTHPLTMFGTGTKVTVL
notes: IgG with germline frameworks as named; only the CDR3s are tied to it
B3: AO3 IgG1 (antibody, V domains shown)
VH: B1 VH
VL: B1 VL with W28N, A99L, L100T, L101M
notes: IgG1
B4: Y61 IgG germline (antibody, V domains shown)
VH: B1 VH with Q6E, K84N
VL: B2 VL with L99A, T100L, M101L
B5: Y61-L30Y (scFv, V domains shown)
VH: B1 VH
VL: B2 VL with Q1S, S2Y, A13T, S25G, S31Y, L79V, L99A, T100L, M101L
notes: copies: 1 + 1
B6: Y61-L30N (scFv, V domains shown)
VH: B1 VH
VL: B2 VL with Q1S, S2Y, A13T, S25G, S31N, L79V, L99A, T100L, M101L
notes: copies: 1 + 1
B7: Y61-L30R (scFv, V domains shown)
VH: B1 VH
VL: B2 VL with Q1S, S2Y, A13T, S25G, S31R, L79V, L99A, T100L, M101L
notes: copies: 1 + 1
B8: Y61-L30D (scFv, V domains shown)
VH: B1 VH
VL: B2 VL with Q1S, S2Y, A13T, S25G, S31D, L79V, L99A, T100L, M101L
notes: copies: 1 + 1
B9: Y61-L30K (scFv, V domains shown)
VH: B1 VH
VL: B2 VL with Q1S, S2Y, A13T, S25G, S31K, L79V, L99A, T100L, M101L
notes: copies: 1 + 1
B10: Y61-L30C (scFv, V domains shown)
VH: B1 VH
VL: B2 VL with Q1S, S2Y, A13T, S25G, S31C, L79V, L99A, T100L, M101L
notes: copies: 1 + 1
B11: Y61-L94Y (scFv, V domains shown)
VH: B1 VH
VL: B2 VL with G95Y, L99A, T100L, M101L
B12: Y61-L94F (scFv, V domains shown)
VH: B1 VH
VL: B2 VL with Q1S, S2Y, A13T, S25G, L79V, G95F, L99A, T100L, M101L
B13: Y61-L94N (scFv, V domains shown)
VH: B1 VH
VL: B2 VL with Q1S, S2Y, A13T, S25G, L79V, G95N, L99A, T100L, M101L
B14: 149-6 (scFv, V domains shown)
VH: B1 VH with K97T
VL: B1 VL with W28N, G30V, T96F, H97T, P98G, A99S, L100R, L101V
notes: scFv
B15: 149-11 (scFv, V domains shown)
VH: B1 VH with K97T, G106S
VL: SYVLTQPPSVSGTPGQRVTISCSGGRSNIGSNTVKWYQQLPGTAPKLLIYGNDQRPSGVPDRFSGSKSGTSASLAITGVQAEDEADYYCQSYDNGFTGARVFGTGTKVTVL
notes: scFv
B16: Y17 (scFv, V domains shown)
VH: B1 VH
VL: B15 VL with N94R, F96S, T97A, G98P, A99M, R100I, V101N
notes: scFv
B17: 149-5 (scFv, V domains shown)
VH: B1 VH with K97T, N104T
VL: B1 VL with W28N, R94S, G95S, T96L, H97W, P98G, A99T, L100R, L101V
notes: scFv
B18: 136-15 (scFv, V domains shown)
VH: B1 VH
VL: B1 VL with G25S, W28N, S91T, R94K, T96F, H97T, P98G, A99S, L100S, L101V
notes: scFv
B19: 136-15 (scFv)
chain: QVQLVQSGGGVVQPGRSLRLSCAASGFTFSSYGMHWVRQAPGKGLEWVAFIRYDGSNKYYADSVKGRFTISRDNSKNTLYLQMKSLRAEDTAVYYCKTHGSHDNWGQGTMVTVSSSYVLTQPPSVSGTPGQRVTISCSGSRSNIGSNTVKWYQQLPGTAPKLLIYGNDQRPSGVPDRFSGSKSGTSASLAITGVQAEDEADYYCQTYDKGFTGSSVFGTGTKVTVLG
B20: 149-6 (scFv)
chain: B19 chain with K97T, S140G, G145V, T206S, K209R, S215R
B21: 149-5 (scFv)
chain: B19 chain with K97T, N104T, S140G, T206S, K209S, G210S, F211L, T212W, S214T, S215R

The first experiment deals with T1, recombinant human IL-12 (rhIL-12). The experiment can be described thus: BIAcore SPR. (In SPR one partner is held on a chip, and binding of the other changes the refractive index at the surface.)
On to B1, for which the koff – broadly, the first-order rate constant of dissociation – worked out at 0.00015 s⁻¹.
As to B2, the koff was determined as 0.00025 s⁻¹.
The same measure, in the same setting: then B3, with 0.000304 s⁻¹.
Still for that read-out and setting: then B4, with 0.00015 s⁻¹.

The target in a further experiment is T2, human interleukin 12 (p70 heterodimer …). The experiment can be described thus: BIAcore.
For the molecule B5, the koff came to 0.000483 s⁻¹.
The molecule B6 yielded a koff of 0.000166 s⁻¹.
Same read-out and setting: then B7, with 0.000182 s⁻¹; and B8, with 0.00022 s⁻¹; and B9, with 0.000346 s⁻¹.
Same read-out and setting: with B10 the figure was 0.000186 s⁻¹.

The target is the same in the next experiment. The experiment can be described thus: BIAcore. The source holds these as a separate data set.
B11 returned a koff of 0.000131 s⁻¹.
The same measure, in the same setting: with B12 the figure was 0.000236 s⁻¹; with B13, 0.000137 s⁻¹.

In the next experiment the target is T3, human IL-12. Briefly: cell-based or functional assay.
As for B14, the “PHA assay IC50” value turned out to be 2 nM.
On the same count and under the same terms, with B15 the figure was 4 nM.
On the same count and under the same terms, then B16, with greater than 10 nM; and B17, with 3 nM.
Consider B18, for which the “PHA assay IC50” value was determined as 2 nM.

In the next experiment the target is T1, recombinant human IL-12 (rhIL-12). The experiment can be described thus: cell-based or functional assay.
As for B1, the “PHA assay IC50” value amounted to 0.13 nM.
Still for that read-out and setting: then B11, with 0.02 nM.
On the same count and under the same terms, then B2, with 0.175 nM; and B3, with 0.38 nM.
B4: the “IFN gamma IC50” value stood at 0.16 nM and the “PHA assay IC50” value is 0.13 nM.
As for B12, the “PHA assay IC50” value was found to be 0.06 nM.
Take B13: the “PHA assay IC50” value worked out at 0.08 nM.

For another experiment the target is unchanged. Briefly: cell-based or functional assay. The source holds these as a separate data set.
Regarding B19, the “PHA assay IC50 (M) p70:p40 1:0” value came out at 2e-09 M, the “PHA assay IC50 (M) p70:p40 1:20” value amounted to 5e-09 M and the “PHA assay IC50 (M) p70:p40 1:50” value was found to be 4e-09 M.
As to B20, the “PHA assay IC50 (M) p70:p40 1:0” value turned out to be 9e-10 M, the “PHA assay IC50 (M) p70:p40 1:20” value turned out to be 1e-09 M and the “PHA assay IC50 (M) p70:p40 1:50” value was 1e-09 M.
B21: the “PHA assay IC50 (M) p70:p40 1:0” value amounted to 6.5e-09 M, the “PHA assay IC50 (M) p70:p40 1:20” value is 7e-09 M and the “PHA assay IC50 (M) p70:p40 1:50” value worked out at 4e-09 M.
B1: the “PHA assay IC50 (M) p70:p40 1:0” value turned out to be 1.8e-10 M and the “PHA assay IC50 (M) p70:p40 1:50” value stood at 1.8e-10 M.
As for B3, the “PHA assay IC50 (M) p70:p40 1:0” value came to 2.5e-10 M and the “PHA assay IC50 (M) p70:p40 1:50” value came to 2.2e-10 M.

The target is the same in another experiment. Briefly: cell-based or functional assay. The source holds these as a separate data set.
B1: the “IC50 (M), bioassay, Human IL-12 Purified” value stood at 1.7e-10 M.

The next experiment has as its target T3, human IL-12. The experiment can be described thus: SPR (BIAcore), IL-12 chip. The source says:
The system utilizes the optical properties of SPR to detect alterations in protein concentrations within a dextran biosensor matrix. Proteins are covalently bound to the dextran matrix at known concentrations. […] To determine the off rate (koff), on rate (kₒₙ), association rate (Ka) and dissociation rate (Kd) constants, BIAcore kinetic evaluation software (version 2.1) was used.
In turn, B14 gave a koff of 0.00273 s⁻¹.
B15 gave a koff of 0.0143 s⁻¹.
B16 yielded a koff of 8.9e-05 s⁻¹.
The molecule B17 had a koff of 0.00102 s⁻¹.
Turning to B18, the koff was 0.00074 s⁻¹.

In a further experiment the target is T3, human IL-12. The experiment can be described thus: RB assay: 125I-hIL-12 binding to PHA blasts. As for the experimental part: (§1) PHA blast cells isolated as described above, were washed once and resuspended in binding buffer to a cell density of 2×10⁷ cells/ml. […] The cell pellet was examined for cell bound radioactivity using a gamma counter. […] Incubations were carried out in duplicate.
Turning to B14, the IC50 (usually the concentration needed to halve the response being measured) was 0.6 nM.
B15: the IC50 came to 0.2 nM.
On the same count and under the same terms, with B16 the figure was 0.45 nM; with B17, 0.12 nM; with B18, 0.1 nM.

The target in the next experiment is T1, recombinant human IL-12 (rhIL-12). Briefly: receptor binding assay, 125I-hIL-12 on PHA blasts. As for the experimental part:
as §1
In the case of B1, the concentration for half-maximal inhibition (IC50) worked out at 0.016 nM.
In the case of B11, the IC50 is 0.02 nM.
On the same count and under the same terms, with B2 the figure was 0.035 nM; with B3, 0.029 nM.
On to B4, for which the IC50 amounted to 0.016 nM.
